# Test results reported in US20040229237.
# Tested on: mouse MIST (Mast Cell-specific Immunoreceptor Signal Transducer)
substance,measurement,value
Lyn kinase,tyrosine phosphorylation of MIST,MIST was evidently phosphorylated by Lyn kinase among tyrosine kinases present in the mast cell
